Results reported in patent US20100144601A1 (Janssen / Centocor, published 2010).

Target: T1, recombinant TNFα, biotinylated (human, UniProt P01375 77-233, biotinylated using sulfo-NHS-LC-Biotin (sites not given))
T1 construct: human is stated in the abstract and claims; also called biotinylated TNFα; human TNFα
Assay: ELISA of lysates on biotinylated TNFα on streptavidin plate
Experimental: Maxisorp plates (Nunc) were coated with 0.5 μg of streptavidin, washed with TBST, and bound to 100 ng of biotinylated TNFα or 200 ng of biotinylated human serum albumin before being blocked with Starting Block (Thermo Scientific). Clarified lysates diluted 1:1 in Starting Block were added to the plates and allowed to bind for 1 hour before being washed with TBST. Detection of bound Tencon was accomplished using an anti-HIS-HRP antibody (Qiagen).

T1 sequence (P01375 77-233 limits assumed): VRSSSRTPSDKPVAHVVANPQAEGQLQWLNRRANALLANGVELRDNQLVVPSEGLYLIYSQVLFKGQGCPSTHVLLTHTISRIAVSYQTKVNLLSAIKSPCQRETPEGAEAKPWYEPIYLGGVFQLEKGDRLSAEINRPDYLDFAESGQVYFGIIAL

Row | Binder | binding result
1 | Clone No. 6 (designed binder, F:G GGLTVIH) LPAPKNLVVSEVTEDSLRLSWTAPDAAFDSFLIQYQESEKVGEAINLTVPGSERSYDLTGLKPGTEYTVSIYGVGGLTVIHPLSAEFTT | binds
2 | Clone No. 77 (designed binder, F:G LDLYLRT) LPAPKNLVVSEVTEDSLRLSWTAPDAAFDSFLIQYQESEKVGEAINLTVPGSERSYDLTGLKPGTEYTVSIYGVLDLYLRTPLSAEFTT | binds
3 | Clone No. 34 (designed binder, F:G GGLTVLH) LPAPKNLVVSEVTEDSLRLSWTAPDAAFDSFLIQYQESEKVGEAINLTVPGSERSYDLTGLKPGTEYTVSIYGVGGLTVLHPLSAEFTT | binds
4 | Clone No. 72 (designed binder, F:G MLKSFAS) LPAPKNLVVSEVTEDSLRLSWTAPDAAFDSFLIQYQESEKVGEAINLTVPGSERSYDLTGLKPGTEYTVSIYGVMLKSFASPLSAEFTT | binds
5 | Clone No. 78 (designed binder, F:G RLTALNA) LPAPKNLVVSEVTEDSLRLSWTAPDAAFDSFLIQYQESEKVGEAINLTVPGSERSYDLTGLKPGTEYTVSIYGVRLTALNAPLSAEFTT | binds
6 | Clone No. 9 (designed binder, F:G GGLSYFH) LPAPKNLVVSEVTEDSLRLSWTAPDAAFDSFLIQYQESEKVGEAINLTVPGSERSYDLTGLKPGTEYTVSIYGVGGLSYFHPLSAEFTT | binds
7 | Clone No. 68 (designed binder, F:G WHGMIRP) LPAPKNLVVSEVTEDSLRLSWTAPDAAFDSFLIQYQESEKVGEAINLTVPGSERSYDLTGLKPGTEYTVSIYGVWHGMIRPPLSAEFTT | binds
8 | Clone No. 3 (designed binder, F:G EGLGVIH) LPAPKNLVVSEVTEDSLRLSWTAPDAAFDSFLIQYQESEKVGEAINLTVPGSERSYDLTGLKPGTEYTVSIYGVEGLGVIHPLSAEFTT | binds
9 | Clone No. 11 (designed binder, F:G GGLSSIH) LPAPKNLVVSEVTEDSLRLSWTAPDAAFDSFLIQYQESEKVGEAINLTVPGSERSYDLTGLKPGTEYTVSIYGVGGLSSIHPLSAEFTT | binds
10 | Clone No. 79 (designed binder, F:G GIPRWVR) LPAPKNLVVSEVTEDSLRLSWTAPDAAFDSFLIQYQESEKVGEAINLTVPGSERSYDLTGLKPGTEYTVSIYGVGIPRWVRPLSAEFTT | binds
11 | Clone No. 86 (designed binder, F:G WAHLLRD) LPAPKNLVVSEVTEDSLRLSWTAPDAAFDSFLIQYQESEKVGEAINLTVPGSERSYDLTGLKPGTEYTVSIYGVWAHLLRDPLSAEFTT | binds
12 | Clone No. 13 (designed binder, F:G GALSVIH) LPAPKNLVVSEVTEDSLRLSWTAPDAAFDSFLIQYQESEKVGEAINLTVPGSERSYDLTGLKPGTEYTVSIYGVGALSVIHPLSAEFTT | binds
13 | Clone No. 83 (designed binder, F:G DVTEVYM) LPAPKNLVVSEVTEDSLRLSWTAPDAAFDSFLIQYQESEKVGEAINLTVPGSERSYDLTGLKPGTEYTVSIYGVDVTEVYMPLSAEFTT | binds
14 | Clone No. 1 (designed binder, F:G GGLTYFH) LPAPKNLVVSEVTEDSLRLSWTAPDAAFDSFLIQYQESEKVGEAINLTVPGSERSYDLTGLKPGTEYTVSIYGVGGLTYFHPLSAEFTT | binds
15 | Clone No. 14 (designed binder, F:G GGLSFLH) LPAPKNLVVSEVTEDSLRLSWTAPDAAFDSFLIQYQESEKVGEAINLTVPGSERSYDLTGLKPGTEYTVSIYGVGGLSFLHPLSAEFTT | binds
16 | Clone No. 71 (designed binder, F:G GGLRYLH) LPAPKNLVVSEVTEDSLRLSWTAPDAAFDSFLIQYQESEKVGEAINLTVPGSERSYDLTGLKPGTEYTVSIYGVGGLRYLHPLSAEFTT | binds
17 | Clone No. 10 (designed binder, F:G GGLTDIH) LPAPKNLVVSEVTEDSLRLSWTAPDAAFDSFLIQYQESEKVGEAINLTVPGSERSYDLTGLKPGTEYTVSIYGVGGLTDIHPLSAEFTT | binds
18 | Clone No. 4 (designed binder, F:G GGLGVIH) LPAPKNLVVSEVTEDSLRLSWTAPDAAFDSFLIQYQESEKVGEAINLTVPGSERSYDLTGLKPGTEYTVSIYGVGGLGVIHPLSAEFTT | binds
19 | Clone No. 80 (designed binder, F:G RVSEEYG) LPAPKNLVVSEVTEDSLRLSWTAPDAAFDSFLIQYQESEKVGEAINLTVPGSERSYDLTGLKPGTEYTVSIYGVRVSEEYGPLSAEFTT | binds
20 | Clone No. 74 (designed binder, F:G GGLSYLH) LPAPKNLVVSEVTEDSLRLSWTAPDAAFDSFLIQYQESEKVGEAINLTVPGSERSYDLTGLKPGTEYTVSIYGVGGLSYLHPLSAEFTT | binds
21 | Clone No. 81 (designed binder, F:G VLSLWMI) LPAPKNLVVSEVTEDSLRLSWTAPDAAFDSFLIQYQESEKVGEAINLTVPGSERSYDLTGLKPGTEYTVSIYGVVLSLWMIPLSAEFTT | binds
22 | Clone No. 70 (designed binder, F:G EWRVQVA) LPAPKNLVVSEVTEDSLRLSWTAPDAAFDSFLIQYQESEKVGEAINLTVPGSERSYDLTGLKPGTEYTVSIYGVEWRVQVAPLSAEFTT | binds
23 | Clone No. 35 (designed binder, F:G GGLAYLH) LPAPKNLVVSEVTEDSLRLSWTAPDAAFDSFLIQYQESEKVGEAINLTVPGSERSYDLTGLKPGTEYTVSIYGVGGLAYLHPLSAEFTT | binds

Next, values leading:

Row | binding result | Binder
24 | binds | Clone No. 36 (designed binder, F:G GGLSVVH) LPAPKNLVVSEVTEDSLRLSWTAPDAAFDSFLIQYQESEKVGEAINLTVPGSERSYDLTGLKPGTEYTVSIYGVGGLSVVHPLSAEFTT
25 | binds | Clone No. 85 (designed binder, F:G LWWTLRK) LPAPKNLVVSEVTEDSLRLSWTAPDAAFDSFLIQYQESEKVGEAINLTVPGSERSYDLTGLKPGTEYTVSIYGVLWWTLRKPLSAEFTT
26 | binds | Clone No. 76 (designed binder, F:G GGWPVRV) LPAPKNLVVSEVTEDSLRLSWTAPDAAFDSFLIQYQESEKVGEAINLTVPGSERSYDLTGLKPGTEYTVSIYGVGGWPVRVPLSAEFTT
27 | binds | Clone No. 12 (designed binder, F:G GGLRVIH) LPAPKNLVVSEVTEDSLRLSWTAPDAAFDSFLIQYQESEKVGEAINLTVPGSERSYDLTGLKPGTEYTVSIYGVGGLRVIHPLSAEFTT
28 | binds | Clone No. 15 (designed binder, F:G ITHMRDM) LPAPKNLVVSEVTEDSLRLSWTAPDAAFDSFLIQYQESEKVGEAINLTVPGSERSYDLTGLKPGTEYTVSIYGVITHMRDMPLSAEFTT
29 | binds | Clone No. 2 (designed binder, F:G GGLSDIH) LPAPKNLVVSEVTEDSLRLSWTAPDAAFDSFLIQYQESEKVGEAINLTVPGSERSYDLTGLKPGTEYTVSIYGVGGLSDIHPLSAEFTT
30 | binds | Clone No. 5 (designed binder, F:G GGLSVIH) LPAPKNLVVSEVTEDSLRLSWTAPDAAFDSFLIQYQESEKVGEAINLTVPGSERSYDLTGLKPGTEYTVSIYGVGGLSVIHPLSAEFTT
31 | binds | Clone No. 73 (designed binder, F:G PWRYGLH) LPAPKNLVVSEVTEDSLRLSWTAPDAAFDSFLIQYQESEKVGEAINLTVPGSERSYDLTGLKPGTEYTVSIYGVPWRYGLHPLSAEFTT
32 | binds | Clone No. 84 (designed binder, F:G SVRMSSV) LPAPKNLVVSEVTEDSLRLSWTAPDAAFDSFLIQYQESEKVGEAINLTVPGSERSYDLTGLKPGTEYTVSIYGVSVRMSSVPLSAEFTT
33 | binds | Clone No. 82 (designed binder, F:G WMVNKVL) LPAPKNLVVSEVTEDSLRLSWTAPDAAFDSFLIQYQESEKVGEAINLTVPGSERSYDLTGLKPGTEYTVSIYGVWMVNKVLPLSAEFTT
34 | binds | Clone No. 7 (designed binder, F:G GGLTYIH) LPAPKNLVVSEVTEDSLRLSWTAPDAAFDSFLIQYQESEKVGEAINLTVPGSERSYDLTGLKPGTEYTVSIYGVGGLTYIHPLSAEFTT
35 | binds | Clone No. 75 (designed binder, F:G MTLTGID) LPAPKNLVVSEVTEDSLRLSWTAPDAAFDSFLIQYQESEKVGEAINLTVPGSERSYDLTGLKPGTEYTVSIYGVMTLTGIDPLSAEFTT
36 | binds | Clone No. 8 (designed binder, F:G GGLTYLH) LPAPKNLVVSEVTEDSLRLSWTAPDAAFDSFLIQYQESEKVGEAINLTVPGSERSYDLTGLKPGTEYTVSIYGVGGLTYLHPLSAEFTT
37 | binds | Clone No. 69 (designed binder, F:G VLSVLQR) LPAPKNLVVSEVTEDSLRLSWTAPDAAFDSFLIQYQESEKVGEAINLTVPGSERSYDLTGLKPGTEYTVSIYGVVLSVLQRPLSAEFTT
